From the nanobody polyreactivity screen of Harvey et al. (2022)

Assay: yeast display, Sf9 membrane polyspecificity reagent, FACS + sequencing; frameworks hold sequencing errors
How it was run: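 Synthetic nanobody libraries on Saccharomyces cerevisiae BJ5465 were galactose-induced for 36–48 hours, stained 1 hour at 4 °C with 10% biotinylated, detergent-solubilized Sf9 membrane reagent and enriched on streptavidin microbeads. FACS then separated cells into low and high (top ~1%) gates by anti-HA (expression) and streptavidin (reagent binding) fluorescence. Genes were colony-PCR amplified, MiSeq 2 × 250 sequenced and CDR-length filtered. A clone's polyreactivity label is that of its gate of origin.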

QVQVVESGGGLVQAGGSLRLSCAASGSFFTRYAIGWYRQAPGKERELVAAISGSGGSTYYADSVKGLFTISRDNAKITVSLQMNSLKPEDTAVYYCAARDYWGQGTQVTVSS
polyreactivity (PSR sort gate): high polyreactivity

QVQLQESGGGLVQAGGSLRLSCAASGSISYPRTMGWYSQAPGQEREFVAGIGVGGNTYYAESVKGRFTISSDNAKNTVYLQMNSQKPEDTAVYYCNAEWYYPYYYSRMDYWGLGTQVTVSS
polyreactivity (PSR sort gate): low polyreactivity

QVQLVESGGGLVQAGGSLRLSCAASGSTFTENAMGWYRQAPGKERELVATISTSDGSTHYADSVKGRFTISRDNAKNTVYLQMNSLKPEDTAVSYCAARPDYYLWHGYYTRRHYYWGQGTQVTVSS
polyreactivity (PSR sort gate): low polyreactivity

QVQLVESGGGLVQAGGSLRLSCAASGLTFERYAMGWYRQAPGKERELVAAISIRGGSTYYADSVKGRFTISRDNAKNTVYLQMNSLKPEDTAVYYCNAESFSFYPSWHEYDYWGQGTQVTVSS
polyreactivity (PSR sort gate): low polyreactivity

QVQLVESGGGLVQAGGSLRLSCAASGRILGDNVMGWYRQAPGKERELVAAISSGSGSTYYADSVKGRFTISRDKAKNTVYLQMNSLKPEDTAVYYCAAGPYIYPGYDYWGQGTQVTVSS
polyreactivity (PSR sort gate): low polyreactivity

QVQLVESGGGLVQAGGSLRLSCAASVSTFYGYAMGWYRQAPGKERELVAAITSTVITDYADSVKGRFTISRDNAKNTVYLQMNSLKPEDTAVYYCSADRYDSSQFYYWGQGTQVTVSS
polyreactivity (PSR sort gate): low polyreactivity

QVQLVESGGGLVQAGGSLRLSCAASGSTFGINAMGWYRQAPGKERELVAAISRRGGSTYYADSVKGRFTISRDNAKNSVYLQMNSLKPEDTAVYYCAARYRNHQYDYWGQGTQVTVSS
polyreactivity (PSR sort gate): high polyreactivity

QVQLQESGGGQVQAGGSLRLSCAASGTIFLYAFKGWYRQAPGKERELVAAIDVGTTTNYADSVKGRFTISRDNAKNTVYLQMNSLKPEDTAVYYCAANLGYLDDLGYWGQGTQVTVSS
polyreactivity (PSR sort gate): low polyreactivity

QVQLVESGGGLVQAGGSLRLSCAASGSTFGTYAMGWYRQAPGKERELVAAINTSGGSTTYADSVKGRFTISRDNAKNTVYLQMNSLKPEDTAVYYCAKDTTGDAYSEYDYWGQGTQVTVSS
polyreactivity (PSR sort gate): low polyreactivity

QVQLVESGGGLVQAGGSLRLSCAASGSTFAPYAMGWYRQAPGKERELVAVITWSGGRTYYADSVKGRFTISRDNAKNTVYLQMNSLKPEDTAVYYCNDVPLLQGFNYWGQGTQGTVSS
polyreactivity (PSR sort gate): high polyreactivity

QVHLVESGGGLVQAGGSLRLSFAASRSIFSKYVMGWYRQAPGKERELVASITSGGRTNYADSVKGRFTISRDNAKNTVYLQMNSLKPEDTAVYYCAARAFKTWYRSGVDYWGQGTQVTVSS
polyreactivity (PSR sort gate): low polyreactivity

QVQLVESGGGLVQAGGSLRLSCAASGCIFVSHAMGWYRQAPGKERELVAAITSGDNTKYADSVKGRFTISRDNAKNTVYLQMNSLKPEDTAVYYCAVTYRYQGAGYYWGQGTQVTVSS
polyreactivity (PSR sort gate): low polyreactivity

QVQLEESGGGIVQAGGSLRLSCAASGRTFGANAMGWYRQAPGKERELVAAISSSDDSTYYADSVKGRFTISRDNAKNTVYLQMNSLKPEDTAVYYCAAEDVYPQLDYWGQGTQVTVSS
polyreactivity (PSR sort gate): low polyreactivity

QVQLVESGGGLVQAGGSLRLSCAASGRIFYYYAMGWYRQAPGKEREFVAAISQRGGSTSYADSVKGRFTISRDNAKNTVYLQMNSLKPEDTAVYYCAAEYYLRVSGRTYVTSHDYWGQGTQVTVSS
polyreactivity (PSR sort gate): high polyreactivity

QVQLVESGGGLVQAGGSLRLSCAASGSIFYRNAMGWYRQAPGKERELVAAISGRGGSTYYADSVKGRFTISRDYAKNTVYLQMYSLKPEDTAVYYCAKDHYRERKYDYWGQGTQVTVSS
polyreactivity (PSR sort gate): low polyreactivity

QVQLVESGGGLVQAGGSLRLSCAASGSIFGYYDMGWYRQAPGKERELVAAISYRGSSTYYADSVKGRFTISRDNAKNTVYLQMNSLKPEDTAVYYCASRYYYSYPPQEDDYWGQGTQVTVSS
polyreactivity (PSR sort gate): high polyreactivity

QVQLVESGGGLVQAGGSLRLSCAASGSTFFSYAMGWYRQAPGKERDLVAAITSNGGTTHYADSVKGRFTISRDNAKNTVYLQMNSLKPEDTADYYCAKAQGHVRGSRGLQGGRYDYWGQGTQVTVSS
polyreactivity (PSR sort gate): low polyreactivity

QVQLVESGGGLVQAGGSLRLSCAASGFTFPWYAMGWYRQAPGKERELVAAISIGTGRTYYADSVKGRFTISRDNAKNTVYLQMNSLKPEDTAVYYCAAEDQYYEDGYWGQGTQVTVSS
polyreactivity (PSR sort gate): high polyreactivity

QVQLVESGGGLVQAGGSLRLSCAASGSISYQNAMGWYRQAPGKERELVAAISGDGDSTYYADSVKGRFTISRDNAKNTVYLQMNSLKPEDTAVYYCAAEPNVYFSVFVLFPYDYWGQGTQVTVSS
polyreactivity (PSR sort gate): low polyreactivity

QVQLVESGGGLVQAGGSLRLSCAASGRIFDHYARGWYRQAPGKERELVAAINSGGTTNYADSVKGRFTISRDNAKNTVYLQMNSLKPEDTAVYYCAARPRKGQYYFGGNYWGQGTQVTVSS
polyreactivity (PSR sort gate): low polyreactivity

QVQLVESGGGLVQAGGSLRLSCAASGSTFSTNVMGWSRQAPGKERELVAAISTIGGSTYADSVKGRFTISRDNAKNSVYLQMNSLKPEDTAVYDCAATRRWYPTKLYGYWGQGTQVTVSS
polyreactivity (PSR sort gate): high polyreactivity

QVQLVESGGGLVQAGGSLRLSCAASGFIFHDNAMGWYRQAPGKERELVAAIRSTGSTNYADSVKGRFTISRDNAKNTVYLQMNSLKPEDTAVYYCNAGKYQSDTPSLDPTEYPAFYYWGQGTQVTVSS
polyreactivity (PSR sort gate): low polyreactivity

QVQLVESGGGLVHAGGSLRLSSAASGRISLSNAMRWYTQAPGKETEFVAAITKRSDRTYYADSVKGRFTNSRDNAKNPVYLQMNSLKPEETAVYYCGAKPLFGTRDDYWGQGTQVTVSS
polyreactivity (PSR sort gate): low polyreactivity

QVQLVESGGGLVQAGGSLRLSCAASGFIFSSYAMGWYRQAPGKERELVAAISRSGGRTYYADSVKGRFTISRDNAKNTVYLQMNSLKPEDTAVYYCAAKWLGTAGDDYWGQGTQVTVSS
polyreactivity (PSR sort gate): high polyreactivity

QVQLVESGGGLVQAGGSLRLSCAASGRIFITNAMGWYRQAPGKERELVAAIRRRGGNTYYADSVKGRFTISRDNANNTVYLQINSLKPEDTAVYYCAVYPRPYKYNYWGQGTQVTVSS
polyreactivity (PSR sort gate): high polyreactivity

QVQLVESGGGLVQAGGSLRLSCAASGSTLFTYAMGWYRQAPGKERELVAAITSSGSTYYADSVKGRFTISRDNAKNTVYLQMNSLKPEDTAVYYCAVPGYRYTKYYYWGQGTQVTVSS
polyreactivity (PSR sort gate): low polyreactivity

QVQLVESGGRLVHAGGSLRISCAASGSILTRNAMGWYRPAPGKERELVAASTKRGGTTYYADSVKGRFTISRDNAKNTVYLQMNSLKQEDNAVYYCAARNGGRFSFEFNYWGQGTQVTVSS
polyreactivity (PSR sort gate): high polyreactivity

QVQLVESGGGLVQAGGSLRLSCAASGNTFATYAMGWYRQAPGKERELVAGITVDGASTNYADSVKGRFTISRDNAKNTVYLQMNSLKPEDTAVYYCNADYTTQVYDSTWPGDFGYWGQGTQVTVSS
polyreactivity (PSR sort gate): high polyreactivity

QVQLQESGGGLVQADGSLRLSCAASGSIFGYYYMGWYRQAPGKDRELVATINICGITNYADSVKGRFTISRDNAKNTVYLQMNSLKPDDTAVYYCAADEYAQRDLGYWGQGTQVTVSR
polyreactivity (PSR sort gate): low polyreactivity

QVQLVESGGGLVQSGGSLRLSCAASGSIFIYYAMGWYRHAPGKERELVAAIDYSGDSTYYADSVKGRFTISRDNAKNTVYLQMNSLKPEDTAVYDCAVYYAGWGDYWGQGTQVTVSS
polyreactivity (PSR sort gate): low polyreactivity

QVQLVESGGGLVQAGGSLRLSCAASGRSYRRNTMGWYRQAPGKERELVAAISNRGTSTYYADSVKGRFTISRDNEKNTVYLLMNSLKPEDTAVYYCAARGVRSYFFPYNYWGQGTQVTVSS
polyreactivity (PSR sort gate): high polyreactivity

QVQLVESGGGLVQAGGSLRLSCAASGRTFARYAMGWYRQAPGKEREFVAGINWSGGGTYYADSVKGRFTISRDNAKNTVYLQMNSLKPEDTAVYYCASYTSVRPKLDYWGLGTQVTVSS
polyreactivity (PSR sort gate): high polyreactivity

QVQLVESGGGLVQAGGSLRLSCGASGFFFEPNSMGWYRQATGKERELVAAISSGGSTYADSVKGRFTISRDNAKNPVYLQMNSLKPEDTAVYYCAARPNQSYYGLYYYWGQGTQVTVSS
polyreactivity (PSR sort gate): low polyreactivity

QVQLVESGGGLVQAGGSLRISCAASGRIFAQYVMGWYRQAPGKERELVAAISSGGSTYYADSVKGRFTISRDNAKNTVYLQMNSLKPEDTAVYYCAARSRAHRVGRQPFDYWGQGTQVTVSS
polyreactivity (PSR sort gate): high polyreactivity

QVQLVESGGGLVQAGGSLRLSCAASGSTFKAYAMGWYRQAPGKERELVAAITKSGGRTYYADSVKGRFTISRDNAKNTVYLQMISLKPEDTAVYYCAAVFRPDSSAYRYYYWGQGTQVTVSS
polyreactivity (PSR sort gate): high polyreactivity

QVQLVESGGGLVQAGGSLRLSCAASGIIFRRNAMGWYRQAPGKERELVATISRSGGSTYYADSVKGRFTISRYNAKNTVYLQMNSLKPEDTAVYYCNTLYPRPYAINPRDYWGQGTQVTVSS
polyreactivity (PSR sort gate): high polyreactivity

QVQLVESGGGLVQAGGSLRLSCAASGLIFPRYAMGWYRQAPGKERELVAAISSGGSTNYADSVKGRFTISRDNAKNTVYLQMNSLKPEDTAVYYCAASSYYYRFSRWPYYHRYYWGQGTQVTVSS
polyreactivity (PSR sort gate): low polyreactivity

QVQLVESGGGLVQAGGSLRLSCAASGFIFYLNVMGWYRQAPGKERELVATITSGGSTNYADSVKGRFTISRDNAKNTVYLQMNSLKPEDTAVYYCAAEQVWYDWEYDYWGQGTQVTVSS
polyreactivity (PSR sort gate): high polyreactivity

QVQLVDSGGGLVQAGGSLRLSCAASGRTLYLYAMGWYRQAPGKKRELVAGISWSGTSTYYADSVKGRFTISRDNSKNTVYLQMNSLKPEDTAFYYCAADRLYVRYGYWGQGTQVTVSS
polyreactivity (PSR sort gate): low polyreactivity

QVQLQESGGGLVQAGGSLRLSCAASGNISVTGFMGWYRQAPGKERELVASIGIGATTYYADSVKGRFSISRDNAKNTVYLQMNSLKPEDTAVYYCAARYLYYAYSYWGQGTQVTVSS
polyreactivity (PSR sort gate): low polyreactivity

QVQLVESGGGLVQAGGSLRLSCAASGFIFYAYAMGWYRPAPGKERELVAAISQRGGITYYADSVKGRFTISRDNAKNTVYLQMNRLKPEDTAVYYCNAGQRYYTSRYYYWGQGTQVTVSS
polyreactivity (PSR sort gate): high polyreactivity

QVQLVESGGGLVQAGGSLRLSCAASGSTFADNAMGWYRQAPGKERELVASISSSATSTYYADSVKGRFTISRDNAKNTVYLQMNSLKPEDSAVYYCSKGRPWYRGDFWGQGTQVTVSS
polyreactivity (PSR sort gate): low polyreactivity

QVQLVESGGGLVQAGGSLRLSCAASGSIFTRNAMGWYRQAPGKERELVAAISRGGGTNYADSVKGRFTISRDNAKNTVYLQMNSLKPEDTAVYYCAARVGYPYPAGYDYWGQGTQVTVSS
polyreactivity (PSR sort gate): high polyreactivity
